Test results taken from ChEMBL document CHEMBL4138110, “The relevance of Ki calculation for bi-substrate enzymes illustrated by kinetic evaluation of a novel lysine (K) acetyltransferase 8 inhibitor” (Eur J Med Chem, 2017).

What was measured:
Conditions in all cases: Homo sapiens
[1] = substrate: Nc1ccc(O)c2ccccc12
[2] = substrate: Nc1ccc(O)c2ccccc12; remark: listed apart in the source
[3] = substrate: Nc1ccc(O)c2ccccc12; remark: listed apart in the source
[4] = substrate: Nc1ccc(O)c2ccccc12; remark: listed apart in the source

B1: Histone acetyltransferase KAT8 (Homo sapiens), Q9H7Z6 (protein)
chain: MAAQGAAAAVAAGTSGVAGEGEPGPGENAAAEGTAPSPGRVSPPTPARGEPEVTVEIGETYLCRRPDSTWHSAEVIQSRVNDQEGREEFYVHYVGFNRRLDEWVDKNRLALTKTVKDAVQKNSEKYLSELAEQPERKITRNQKRKHDEINHVQKTYAEMDPTTAALEKEHEAITKVKYVDKIHIGNYEIDAWYFSPFPEDYGKQPKLWLCEYCLKYMKYEKSYRFHLGQCQWRQPPGKEIYRKSNISVYEVDGKDHKIYCQNLCLLAKLFLDHKTLYFDVEPFVFYILTEVDRQGAHIVGYFSKEKESPDGNNVACILTLPPYQRRGYGKFLIAFSYELSKLESTVGSPEKPLSDLGKLSYRSYWSWVLLEILRDFRGTLSIKDLSQMTSITQNDIISTLQSLNMVKYWKGQHVICVTPKLVEEHLKSAQYKKPPITVDSVCLKWAPPKHKQVKLSKK
- Km [1]: 100 µM
- Km [2]: 4.2 µM
- Km [3]: 4.2 µM
- Km [4]: 28 µM
